Residue numbers refer to the chain shown, from its start.
B1: 18 (protein)
chain: MPPMRTRTRILTASLALLAANAWAADAMPSTPHTVVLRAARMFDGASGKLVEHPQLTIVGNKIVRVAQDDKAAVPAGADVIDLGDATLLPGFIDAHVHLSGQSSDNWYGDFFDNMMRFPAEQALYGAWYARITLEAGFTSVRDVGSTDWIALGLRNAIDAGKVPGPRMLVSNYAIGSTGGHADQDPIPPQKLAPAGPLQGVCNGPDECRAAVRYQIKYGANVIKFMPSGGVLSLSDPVDAPELTQEEMNAVVGEAHAWGRKVAAHAHGDKAAKMAVAAGVDSIEHGSFLEDDTLRMMKAKGVYLVPTISAVMHVEEKIATFPPVIAEKGRAAAAHVRQTFRHAVQIGVPIALGTDAGVGAHGTNAREFRYMVDNGMAPAQALLAGTSNAARLLGTIDRVGTLEAGKLADVVAVPGNPVADITVTERPVFVMKDGVVVRRGAVR
modifications: polypeptide 4
B2: 369 (protein)
chain: MRTRTRILTASLALLAANAWAADAMPSTPHTVVLRAARMFDGASGKLVEHPQLTIVGNKIVRVAQDDKAAVPAGADVIDLGDATLLPGFIDAHVHLSGQSSDNWYGDFFDNMMRFPAEQALYGAWYARITLEAGFTSVRDVGSTDWIALGLRNAIDAGKVPGPRMLVSNYAIGSTGGHADQDPIPPQKLAPAGPLQGVCNGPDECRAAVRYQIKYGANVIKFMPSGGVLSLSDPVDAPELTQEEMNAVVGEAHAWGRKVAAHAHGDKAAKMAVAAGVDSIEHGSFLEDDTLRMMKAKGVYLVPTISAVMHVEEKIATFPPVIAEKGRAAAAHVRQTFRHAVQIGVPIALGTDAGVGAHGTNAREFRYMVDNGMAPAQALLAGTSNAARLLGTIDRVGTLEAGKLADVVAVPGNPVADITVTERPVFVMKDGVVVRRGAVR
modifications: exemplary polypeptide
B3: 22 (protein)
chain: MQYDVAIKNGNVFTGTEFIGKMNIYISNGKISKVSKEDLNAKQEIDAKDMLVMPGLIDAHMHISGLKGGSLLKIMFEKPEYRALRATKWLEKLLLAGFTTVRDCGEPISISLKRAVNEGYIKGPKIIAAGKPITQTFGHGEFSHDIPLEFSISLGFSEICDGTESCIHAARKVLRDGSDFIKIFATGGVLSQRDRPDMPQLSFDEIRAIVNEAEKAGTYVAAHAHGDKGARIAIEAGIKTLEHGSLLKEDTLKLMLEKNISLTPTLTITEIIYKYGKTIGVDEWGLEKIVEVRENLHKVLRKAKELGITIITGTDMGFETGLEDYDIGKNWTEILLLTEVGGLSNEEALRAATYNSAKALGLNSGLIDEGKDADIIVIDGNPLENIKDVSKVVHVIKQGKLEVLDGKIINNY
modifications: polypeptide 8
B4: 2 (protein)
chain: MYSLAIRNGIVFDGEKFIGKTNIYVDGDKIVKITNERLDAKEEVNAEGYFVMPGLIDAHLHLTGIRGGSLLMGYLLDDPRTRLLRAANWARELLMAGFTTVRDCGEPNSIILRNAINEGIIPGPRIIAAGSPITQTFGHAELSHSLPLEWSIQLGFGEICDGVDECIKAARKVLRSGADFIKIMATGGVLSERDRPEWPQLTPEEMSAIVREAEKVGTYVAAHAHGDKGARIAVEAGVRTIEHGSLITEETVKLMAEKGVSLTPTLSIQELIYKYGKQMGIDPWGLEKIGQVREGVINSIKLARKYGVMILAGTDLGFKTGLDIDMGKNWVEVKLLVELGGLSSEEALRAATGNASKMLRLNTGIIREGYLADIVLINGNPLENINDIARVSTVIKGGKVTVENGKLI
modifications: polypeptide 2
B5: 21 (protein)
chain: MTTPTRILTAVLALLASNACAADATPSTPHTVVLRAARMFDGASGKLVERPQLTIVGNKIVRIAQADKADVPAGAEVIDLGDATLLPGFIDAHVHLSGQGSDNWYGDFFDNMMRFPAEQALYGAYYARITLEAGFTSVRDVGSTDWVALGLRNAIDAGKVPGPRMLVSNYAVGSTGGHADQDPIPPHKLPLAGPLQGVCNGPEECRAAVRYQIKYGANVIKFMPSGGVLSLSDPVDAPELSQDEMNAVIGESHAWGRKVAAHAHGDKAAKMAVAAGVDSIEHGSFIEDDTLRAMKAKGVYLVPTISAIAHVEEKIATFPPVIAEKGRAAAAHLRQTFRHAVQIGVPIALGTDAGVGAHGTNAREFRYMVENGLSPAQSLLAGTSNAARLLGTIDRVGTLEAGKLADVVAVPGNPIADITVTERPVFVMKDGVVVRRGAVR
modifications: polypeptide 7
B6: 368 (protein)
chain: B5 chain with A13S, S17A, T25A, S27A, H264P
modifications: exemplary polypeptide
B7: 1 (protein)
chain: APAAPHTVVLRAARMFDGASGKLVDHPQLTIVGNKIVRIAQGDKAEVPAGAEVVDLGDATLLPGFIDAHVHLSGQSSDNWYGDFFDNMMRFPAEQALYGAYYARITLEAGFTSVRDVGSTDWVALGLRNAIDAGKVPGPRMLVSNYAVGSTGGHADQDPIPPHKLPLAGPLQGVCNGPEECRAAVRYQIKYGANVIKFMPSGGVLSLSDPVDAPELSQDEMNAVIGESHAWGRKVAAHAHGDKAAKMAVAAGVDSIEHGSFIEDDTLRAMKAKNVYLVPTISAIAHVEEKIGTFPPVIAEKGRAAAAHLRQTFRHAVQIGVPIALGTDAGVGAHGSNAREFRYMVENGLTPAQALLAGTANAARLLGTFDRVGTLEAGKLADVVAVPGNPIADITVTERPLFVMKDGVVVRRDAVR
modifications: polypeptide 1
B8: 17 (protein)
chain: MTTRLRILTASLALLAANACAADAAPSTPHTVVLRAARMFDGASGKIVEHPQLTIVGNKIVRIAQGKEEDNRTGIPAGADVIDLGDATLLPGFIDAHVHLSGQSSDNWYGDFFDNMMRFPAEQALYGAYYARITLEAGFTSVRDVGSTDWIALGLRNAIDAGKVPGPRMLVSNYAVGSTGGHADQDPIPPQKLAPAGPLQGVCNGPEECRAAVRYQIKYGANVIKFMPSGGVLSLSDPVDAPELSQDEMNAVIGEAHAWGRKVAAHAHGDKAAKMAVTAGVDSIEHGSFLEDDTLRMMKAKGVYLVPTISAIAHVEEKIATFPSVIAEKGRAAASHSRQMFRHAVQIGVPIALGTDAGVGAHGTNAREFRYMVDNGLTPAQSLMAGTANAARLLGTFDRVGTLEAGKLADVVAVPGNPIADITVTERPVFVMKDGVVVRRGAVR
modifications: polypeptide 3

Test: OTA detoxification activity assay (specific activity, fluorescence reduction ex/em 390/450 nm)
Type: biochemical
Settings: pH 6.0; 37° C.; 200 ng/mL OTA; 100 mM sodium phosphate buffer
Summary of the method: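 Recombinant enzyme preparation with 200 ng/mL OTA in 100 mM sodium phosphate, at pH 6.0 and pH 7.5, 37° C. Degradation followed as the fall in fluorescence at ex/em 390/450 nm. Specific activity taken from the initial linear slope; one unit degrades 1 μmol OTA per min at a starting OTA of […].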

Molecule	Specific OTA detoxification activities in U/g at pH 6.0 [U/g]
B1	39.30
B2	122.50
B3	0.66
B4	0.61
B5	20.53
B6	3.70
B7	99.00
B8	11.65

Same assay, conditions: pH 7.5; 37° C.; 200 ng/mL OTA; 100 mM sodium phosphate buffer

Molecule	Specific OTA detoxification activities in U/g at pH 7.5 [U/g]
B1	147.14
B2	159.80
B3	0.79
B4	0.73
B5	30.87
B6	15.10
B7	191.89
B8	28.44

Test: Thermostability assay: residual OTA detoxification activity after 10 min incubation at 45-99° C. (T50)
Type: physicochemical
Settings: 0.1 mg/mL protein in 20 mM Tris-HCl pH 7.5, residual OTA detoxification activity relative to 4° C. reference aliquot
Protocol: Stability was determined in terms of thermostability. Notwithstanding, a person having skill in the art is aware that stability towards high temperature (e.g. more than 30° C.) often correlates with stability towards other non-standard conditions such as stability towards acidic or basic pH (e.g. below pH 6.5 or above pH 7.5, respectively), towards elevated salt concentrations, organic solvents or drying.
To determine the kinetic stability of the produced enzymes, thermostability assays were performed. To this end, purified protein samples were diluted to a protein concentration of 0.1 mg/mL in 20 mM Tris-HCl buffer pH 7.5 and aliquots were incubated in a thermocycler for 10 min at either 45, 55, 65, 75, 80, 85, 90, 95 or 99° C. After this incubation, the aliquots were stored at 4° C. until further analysis. A reference aliquot was stored at 4° C. throughout the incubation. Subsequently, all aliquots were assayed for residual OTA detoxification activity using the assay described in Example 3. Residual enzyme activities were calculated relative to the reference aliquot. The temperature range in which 50% of the initial activity was lost after the incubation (T50), in relation to the reference aliquot was determined.

Molecule	T50 (temperature at which 50% of the initial activity was maintained)
B1	81-83 °C
B2	68 °C
B3	>95 °C
B4	>95 °C
B5	65-75 °C
B6	68 °C
B7	65-75 °C
B8	65-75 °C
